Results taken from PMC7736295 (Cell Discovery, 2020).

B1: Mint1-CID (residues 338-397) [not stated] / CASK-CaMK (residues 1-337) [not stated] (parent)
chain 1: QRYSKEKRDAISLAIKDIKEAIEEVKTRTIRSPYTPDEPKEPIWVMRQDISPTRDCDDQR
chain 2: MADDDVLFEDVYELCEVIGKGPFSVVRRCINRETGQQFAVKIVDVAKFTSSPGLSTEDLKREASICHMLKHPHIVELLETYSSDGMLYMVFEFMDGADLCFEIVKRADAGFVYSEAVASHYMRQILEALRYCHDNNIIHRDVKPHCVLLASKENSAPVKLGGFGVAIQLGESGLVAGGRVGTPHFMAPEVVKREPYGKPVDVWGCGVILFILLSGCLPFYGTKERLFEGIIKGKYKMNPRQWSHISESAKDLVRRMLMLDPAERITVYEALNHPWLKERDRYAYKIHLPETVEQLRKFNARRKLKGAVLAAVSSHKFNSFYGDPPEELPDFSEDPTS

Variants of: B1
Test: ITC
Conditions: with CASK-CaMK (residues 1-337); Mint1-CID mutant titrated into CASK(1-337)

Row | Variant | Kd [nM]
1 | chain 1 QRYSKEKRDAISLAAKDAKEAAEEVKTRTIRSPYTPDEPKEPIWVMRQDISPTRDCDDQR [chain 1 I15A I18A I22A] | 270
